Reference: PMC7614924

Target: 0N4R isoform of human tau bearing P301S with a C-terminal Venus tag (Sarkosyl-insoluble filaments from seeded HEK293 cells) (human)

percent of HEK293 P301S tau-Venus cells with aggregates (Venus fluorescence) 24 h after 100 nM recombinant tau fibrils with lipofectamine: 20%
Substance: Recombinant N-terminally 6xHis-tagged human P301S 0N4R tau (heparin-assembled fibrils) (natural protein)
